We go through two substances from patent publication US20050043510A1, “Affinity purification system using troponin molecules as affinity ligands” (priority 2003, published 2005).

Data set [1] has as its target bovine serum albumin (Bos taurus, UniProt P02769). Particulars: in the presence of calcium; Hanson Pierce et al. (1998); cited from earlier work.
Data set [2] concerns the target rabbit skeletal muscle troponin C (Oryctolagus cuniculus, UniProt P02586). The settings on record: in the presence of calcium; Hanson Pierce et al. (1998); cited from earlier work.
The target in data set [3] is calmodulin (Homo sapiens, UniProt P0DP23). Particulars: in the presence of calcium; Hanson Pierce et al. (1998); cited from earlier work.
Data set [4] has as its system troponin C-tagged C-terminal truncated version of La/SSB (TnC-LaΔC).

Sequence of rabbit skeletal muscle troponin C (P02586 whole entry): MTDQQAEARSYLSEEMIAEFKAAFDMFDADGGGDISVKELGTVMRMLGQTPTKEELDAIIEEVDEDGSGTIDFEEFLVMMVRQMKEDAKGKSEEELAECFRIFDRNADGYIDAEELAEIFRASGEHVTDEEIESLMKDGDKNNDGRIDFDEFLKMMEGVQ
Sequence of bovine serum albumin (P02769 25-607): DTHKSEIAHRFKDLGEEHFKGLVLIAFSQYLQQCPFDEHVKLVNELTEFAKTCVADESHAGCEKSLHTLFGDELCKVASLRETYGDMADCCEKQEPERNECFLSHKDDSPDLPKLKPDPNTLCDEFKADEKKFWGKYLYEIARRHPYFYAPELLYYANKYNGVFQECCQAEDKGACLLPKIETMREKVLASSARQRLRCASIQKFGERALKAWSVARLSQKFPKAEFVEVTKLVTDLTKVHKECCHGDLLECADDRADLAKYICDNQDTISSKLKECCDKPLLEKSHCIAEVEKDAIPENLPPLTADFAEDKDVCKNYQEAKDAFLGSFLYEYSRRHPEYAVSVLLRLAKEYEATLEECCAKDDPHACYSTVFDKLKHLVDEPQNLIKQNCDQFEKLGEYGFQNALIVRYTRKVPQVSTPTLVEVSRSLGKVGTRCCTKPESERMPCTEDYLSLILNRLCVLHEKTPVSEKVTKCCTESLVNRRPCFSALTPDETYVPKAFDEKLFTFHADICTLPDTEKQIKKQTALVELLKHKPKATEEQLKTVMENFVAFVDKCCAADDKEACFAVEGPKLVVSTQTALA

Consider “SRLDYLKSSLLHLGSR (SEQ ID NO:1) [Troponin C binding peptide, previously described (Hanson Pierce et al. 1998)]”, for which the Calcium dependent binding entry in data set [1] is “not”; in data set [2] it was “demonstrated”; in data set [3], “not”.

“biotinylated thrombin (Thrombin Cleavage Capture Kit, Novagen)”: the “thrombin proteolytic cleavage (SDS-PAGE)” value in data set [4] is listed as “apparent complete cleavage when 0.1 units of thrombin was used”.
